Data from PMC9417184.

How the values were obtained:
[1] = molecular target: Gallionella sp. form II RuBisCO R98A (Gallionella sp.); assay: SEC-MALS + other: SAXS; SEC-SAXS-MALS; RuBisCO at 2 to 5 mg/ml, activated with excess NaHCO3; Shodex KW-803 column; 20 mM Hepes-OH pH 8.0, 300 mM NaCl, 10 mM MgCl2, 10 mM NaHCO3; oligomeric state of the enzyme
[2] = molecular target: Gallionella sp. form II RuBisCO R131A (Gallionella sp.); assay: as above
[3] = molecular target: Gallionella sp. form II RuBisCO, wild type (GWS1B) (Gallionella sp.); assay: as above
[4] = molecular target: Insolitispirillum peregrinum form II RuBisCO, wild type (Insolitispirillum peregrinum); assay: as above
[5] = molecular target: Rhodospirillaceae bacterium BRH_c57 form II RuBisCO (Rhodospirillaceae bacterium BRH_c57); assay: crystal structure; X-ray; RuBisCO activated and incubated with a tenfold molar excess of CABP; molecular replacement
[6] = molecular target: Rhodospirillaceae bacterium BRH_c57 form II RuBisCO (Rhodospirillaceae bacterium BRH_c57); assay: SEC-MALS + other: SAXS; SEC-SAXS-MALS; RuBisCO at 2 to 5 mg/ml, activated with excess NaHCO3; Shodex KW-803 column; 20 mM Hepes-OH pH 8.0, 300 mM NaCl, 10 mM MgCl2, 10 mM NaHCO3; oligomeric state of the enzyme
[7] = molecular target: Sulfurivirga caldicuralii form II RuBisCO (Sulfurivirga caldicuralii); assay: crystal structure; X-ray; RuBisCO activated and incubated with a tenfold molar excess of CABP; molecular replacement
[8] = molecular target: Sulfurivirga caldicuralii form II RuBisCO (Sulfurivirga caldicuralii); assay: SEC-MALS + other: SAXS; SEC-SAXS-MALS; RuBisCO at 2 to 5 mg/ml, activated with excess NaHCO3; Shodex KW-803 column; 20 mM Hepes-OH pH 8.0, 300 mM NaCl, 10 mM MgCl2, 10 mM NaHCO3; oligomeric state of the enzyme

Substance: Gallionella sp. form II RuBisCO R98A (enzyme)
- stoichiometry N [1]: 2

Substance: Gallionella sp. form II RuBisCO R131A (enzyme)
- stoichiometry N [2]: 2

Substance: Gallionella sp. form II RuBisCO, wild type (GWS1B) (enzyme)
- stoichiometry N [3]: 6

Substance: Insolitispirillum peregrinum form II RuBisCO, wild type (enzyme)
- stoichiometry N [4]: 2

Substance: Rhodospirillaceae bacterium BRH_c57 form II RuBisCO (enzyme)
- stoichiometry N [5]: 6
- stoichiometry N [6]: 6

Substance: Sulfurivirga caldicuralii form II RuBisCO (enzyme)
- stoichiometry N [7]: 4
- stoichiometry N [8]: 4
